Test results taken from article PMC3102069, “Charge Isomers of Myelin Basic Protein: Structure and Interactions with Membranes, Nucleotide Analogues, and Calmodulin” (PLoS ONE, 2011).

Legend:
[1] = biological target: calmodulin (UniProt P0DP23); settings: cited from earlier work
[2] = biological target: recombinant murine 18.5-kDa myelin basic protein, C1 charge isomer analogue (rmC1) (mouse) (UniProt P04370); test: SEC; Superdex 200 HR 10/30, room temperature; 20 mM HEPES pH 7.5, 100 mM NaCl, 10 mM CaCl2; rmMBP 25 µM with CaM 12.5-125 µM (rmMBP:CaM 2:1, 1:1, 1:2, 1:3, 1:5)
Chain of recombinant murine 18.5-kDa myelin basic protein, C1 charge isomer analogue (rmC1) (mouse) (P04370 other isoform, or with tags, fused parts or gaps): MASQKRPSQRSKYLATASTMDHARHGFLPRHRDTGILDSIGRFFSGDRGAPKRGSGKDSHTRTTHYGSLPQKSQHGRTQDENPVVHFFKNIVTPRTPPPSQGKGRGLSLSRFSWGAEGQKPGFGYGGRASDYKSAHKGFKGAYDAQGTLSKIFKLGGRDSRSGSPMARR

[3] = biological target: recombinant murine 18.5-kDa myelin basic protein, pseudodeiminated C8 charge isomer analogue (rmC8) (mouse); test: as above
[4] = biological target: recombinant murine 18.5-kDa myelin basic protein, C1 charge isomer analogue (rmC1) (mouse) (UniProt P04370); test: ITC; CaM (100 µM) in the syringe titrated into rmMBP (5 µM) in the cell; 20 mM HEPES pH 7.5, 100 mM NaCl, 10 mM CaCl2; one-site model with floating, apparent stoichiometry; +20°C
[5] = biological target: recombinant murine 18.5-kDa myelin basic protein, pseudodeiminated C8 charge isomer analogue (rmC8) (mouse); test: as above
[6] = biological target: recombinant murine 18.5-kDa myelin basic protein, C1 charge isomer analogue (rmC1) (mouse) (UniProt P04370); test: ITC; CaM (100 µM) in the syringe titrated into rmMBP (5 µM) in the cell; 20 mM HEPES pH 7.5, 100 mM NaCl, 10 mM CaCl2; one-site model with floating, apparent stoichiometry; 35°C (temperature from Table 3)
[7] = biological target: recombinant murine 18.5-kDa myelin basic protein, pseudodeiminated C8 charge isomer analogue (rmC8) (mouse); test: as above
[8] = biological target: recombinant murine 18.5-kDa myelin basic protein, C1 charge isomer analogue (rmC1) (mouse) (UniProt P04370); test: ITC; CaM (100 µM) in the syringe titrated into rmMBP (5 µM) in the cell; 20 mM HEPES pH 7.5, 100 mM NaCl, 10 mM CaCl2; one-site model with floating, apparent stoichiometry; +25°C
[9] = biological target: recombinant murine 18.5-kDa myelin basic protein, pseudodeiminated C8 charge isomer analogue (rmC8) (mouse); test: as above
[10] = biological target: recombinant murine 18.5-kDa myelin basic protein, C1 charge isomer analogue (rmC1) (mouse) (UniProt P04370); test: ITC; CaM (100 µM) in the syringe titrated into rmMBP (5 µM) in the cell; 20 mM HEPES pH 7.5, 100 mM NaCl, 10 mM CaCl2; one-site model with floating, apparent stoichiometry; +30°C
[11] = biological target: recombinant murine 18.5-kDa myelin basic protein, pseudodeiminated C8 charge isomer analogue (rmC8) (mouse); test: as above
[12] = biological target: recombinant murine 18.5-kDa myelin basic protein, C1 charge isomer analogue (rmC1) (mouse) (UniProt P04370); test: ITC; CaM (100 µM) in the syringe titrated into rmMBP (5 µM) in the cell; 20 mM HEPES pH 7.5, 100 mM NaCl, 10 mM CaCl2; one-site model with floating, apparent stoichiometry; +15°C
[13] = biological target: recombinant murine 18.5-kDa myelin basic protein, pseudodeiminated C8 charge isomer analogue (rmC8) (mouse); test: as above

Row | stoichiometry N [2] | stoichiometry N [3] | stoichiometry N [4] | stoichiometry N [5] | stoichiometry N [6] | Kd [7] | stoichiometry N [7] | stoichiometry N [8] | stoichiometry N [9] | stoichiometry N [10] | stoichiometry N [11] | stoichiometry N [12] | Kd [13] | stoichiometry N [13] | Substance | Kd [1]
1 | – | – | – | – | – | – | – | – | – | – | – | – | – | – | myelin basic protein (brain) (from UniProt P02687) | 0.01 µM
2 | 2 | 2 | 1.5 | 1.3 | 0.9 | 1.9 µM | 0.8 | 1.9 | 1.2 | 1.4 | 1 | 1.5 | 1.2 µM | 1.5 | calmodulin (CaM), recombinant (from UniProt P0DP23 1-149) (natural protein) | –
